T1: α-galactosidase A, wild type (human, UniProt P06280 32-429)
T1 sequence (looked up): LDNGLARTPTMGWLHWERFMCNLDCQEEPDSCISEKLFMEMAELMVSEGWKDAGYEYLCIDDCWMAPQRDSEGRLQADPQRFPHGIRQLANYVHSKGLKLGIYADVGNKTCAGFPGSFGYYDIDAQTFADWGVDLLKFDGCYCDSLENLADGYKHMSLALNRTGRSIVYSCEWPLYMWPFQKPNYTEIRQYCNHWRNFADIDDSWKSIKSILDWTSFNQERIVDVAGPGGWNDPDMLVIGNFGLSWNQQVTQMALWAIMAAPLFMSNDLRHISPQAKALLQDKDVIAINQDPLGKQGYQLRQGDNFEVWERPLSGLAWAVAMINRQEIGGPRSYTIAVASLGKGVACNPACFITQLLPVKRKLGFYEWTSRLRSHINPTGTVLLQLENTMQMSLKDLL

T2: SapB (saposin B; sphingolipid activator protein B) (Homo sapiens, UniProt P07602)
T2 sequence (P07602 195-273): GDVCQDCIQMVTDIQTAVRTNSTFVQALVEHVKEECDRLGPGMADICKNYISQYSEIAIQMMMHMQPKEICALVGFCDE

T3: SapD (saposin D) (Homo sapiens, UniProt P07602)
T3 construct: gene PSAP; mature saposin D, E. coli expressed
T3 sequence (P07602 405-486): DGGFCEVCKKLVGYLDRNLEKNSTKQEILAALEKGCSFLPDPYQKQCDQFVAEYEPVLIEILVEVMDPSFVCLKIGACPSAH

B1: α-galactosidase A (GLA) (Homo sapiens) (protein)
chain: T1 sequence (looked up)
notes: wild-type human GLA, C-terminal 2x-FLAG, Sf9 expressed
B2: α-galactosidase A D170A (catalytic nucleophile mutant) (enzyme, human)
chain: T1 sequence (looked up) with D139A
notes: human α-galactosidase A (UniProt P06280), D170A mutant; Secreted into the Sf9 supernatant, so the signal peptide is probably removed (surmised); Glycosylated; Homodimer; also called GLA^D170A; GLA
B3: Saposin D (natural protein, human, UniProt P07602 405-486, looked up)
chain: T3 sequence (P07602 405-486)
notes: saposin D, the mature cut product of prosaposin (UniProt P07602); Tag printed as enterokinase-cleavable N-terminal His8-DDDDK-GAS; GAS probably left after cleavage (surmised); also called SapD; source: E. coli Shuffle T7 Express, purified (heat shock, Ni agarose, enterokinase cleavage, SEC); not shown: His8, N-terminal, cleaved

Positions count from the first letter of the chain named. Numbers in names are those of the source.

Data set [1] has as its target T1, α-galactosidase A, wild type.
In data set [2] the target is Sphingolipid activator protein B (saposin B) (human) (UniProt P07602). Put plainly: crystal structure; SapB co-crystallised with Gb3-NBD at about molar equivalence; 3.25 M malonate pH 5, 20 °C; 2.68 Å.
Data set [3] has the same target. The data set can be described thus: cross-linking; BS3 cross-linker (0-1 mM), 10 μM GLA^D170A or GAA, 50-100 μM SapB (with 20% SapB^ANBD in some gels) or 100 μM SapD, 0-200 μM Gb3-NBD, PBS pH 6.5, one hour; Tricine-SDS-PAGE with One-Step Blue stain, in-gel NBD fluorescence and anti-GLA western blot; also at 10 μM SapB^ANBD, 1 μM GLA^D170A, 50 μM Gb3-NBD. Background: A western blot detects proteins with antibodies after separation by electrophoresis.

Data set [4] concerns the target T2, SapB (saposin B; sphingolipid activator protein B). Put plainly: NBD fluorescence equilibrium binding (pH […] days), weak. Also noted: gene PSAP; mature saposin B, E. coli expressed.
In data set [5] the target is T3, SapD (saposin D). The data set can be described thus: NBD fluorescence equilibrium binding, acidic pH only.
For data set [6], the target named is T2, SapB (saposin B; sphingolipid activator protein B). The data set can be described thus: NBD fluorescence equilibrium binding (pH […] h); also SEC co-migration and LC-MS of co-crystals. Also noted: gene PSAP; mature saposin B, E. coli expressed (SapB dimer).
Substrate in data set [7]: O=[N+]([O-])c1ccc(O[C@H]2O[C@H](CO)[C@H](O)[C@H](O)[C@H]2O)cc1
The data set can be described thus: purified protein. It is filed as biochemical, Homo sapiens.

Data set [8] concerns the molecule itself. Put plainly: crystal structure; SapB preincubated with DDAO detergent (~1:47) at pH 5, mixed with GLA^D170A; crystals in 0.1 M Tris pH 8, 1 M ammonium sulfate, 20 °C; 3.53 Å.
Data set [9] addresses B2. The data set can be described thus: cross-linking; BS3 cross-linker (0-1 mM), 10 μM GLA^D170A or GAA, 50-100 μM SapB (with 20% SapB^ANBD in some gels) or 100 μM SapD, 0-200 μM Gb3-NBD, PBS pH 6.5, one hour; Tricine-SDS-PAGE with One-Step Blue stain, in-gel NBD fluorescence and anti-GLA western blot; also at 10 μM SapB^ANBD, 1 μM GLA^D170A, 50 μM Gb3-NBD. The note with it: both partners purified.

Data set [10] deals with T1, α-galactosidase A, wild type. Put plainly: cell-based or functional assay.

For “SapB^ANBD (SapB N21C labelled with IANBD amide) (natural protein)”, the galactose production from Gb3-NBD by GLA in an 18-hour enzyme-activator assay, relative to wild-type SapB in [1] was determined as 80%. On to “Sphingolipid activator protein B (saposin B) (from UniProt P07602 195-273) (natural protein)”, for which the stoichiometry N in [2] and in [3] was 2 in each case.

In the case of `CCCCCCCCCCCCCCC[C@@H](O)[C@H](CO)NC(=O)CCCCCCCCCCCNc1ccc([N+](=O)[O-])c2nonc12` [Cer-NBD], the Kd in [4] was greater than 95 µM. For the molecule `CCCCCCCCCCCCC/C=C/[C@@H](O)[C@H](CO[C@@H]1O[C@H](CO)[C@@H](O[C@@H]2O[C@H](CO)[C@H](O[C@H]3O[C@H](CO)[C@H](O)[C@H](O)[C@H]3O)[C@H](O)[C@H]2O)[C@H](O)[C@H]1O)NC(=O)CCCCCCCCCCCNc1ccc([N+](=O)[O-])c2nonc12` [Gb3-NBD], the Kd worked out at 38 ± 2 µM in data set [5] and 5.8 ± 0.5 µM in data set [6].

B1: the Michaelis-Menten constant (Km) in data set [7] came to 9.9 mM. Consider B2, for which, in [7], the Km was found to be 7.4 mM. In addition, the “stoichiometry N” value in data set [8] was determined as 2. Consider B3, for which the binding result in data set [9] was “binds”. Further, in [10], the “free galactose released from Gb3-NBD by wild-type GLA after 2.5 hours in acidic buffer (Amplex Red galactose assay); SapD at a tenfold molar excess to GLA” value is roughly 5 µM.

By stoichiometry N is commonly meant the number of molecules, sites or subunits per partner or assembly. As usually defined, the Kd is the constant that tells how readily two partners part at equilibrium. A low value points to a tighter complex. As usually defined, the Km is the concentration of substrate that gives half-maximal velocity.

The values above are taken from publication doi:10.1101/2024.04.04.584535, “Human Saposin B Ligand Binding and Presentation to α-Galactosidase A” (bioRxiv, 2024).
